The nanobody polyreactivity screen of Harvey et al. (2022)

Assay: yeast display, Sf9 membrane polyspecificity reagent, FACS + sequencing; frameworks hold sequencing errors
How it was run: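 Galactose-induced (36–48 hours) yeast carrying a synthetic nanobody display library were exposed to 10% biotinylated, detergent-solubilized Sf9 membrane reagent at 4 °C for 1 hour. FACS followed streptavidin microbead enrichment, using low and high (top ~1%) gates for expression (anti-HA) and reagent binding (streptavidin). Colony PCR, MiSeq 2 × 250 sequencing and CDR-length filtering followed. Labels for polyreactivity reflect the gate of origin.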

Row | Sequence | polyreactivity (PSR sort gate)
1 | QVQLVESGGGLVQAGGRLRLSCAASGFTFTNYAMGRYRQAPGKERELVAAISWNGGSTYYADSVKGRFTISRDNAKNTVYLQMNSLKPEDTAVYYCNAYDYQYFYGYEYDYWGQGTQVTVSS | high polyreactivity
2 | QVQLEESGGGLVQAGGSLRLSCAASGSIIGPNAMGWYRQAPGKDRELVAAITSGSSTKYADSVKGRFTISRDNAMNTVYLQMNSLKPEDTAVDYCAASGTTTWKYGFWGQGTQVTVSS | low polyreactivity
3 | QVQLEESGGGLVQAGGSLRLSCAASGFTFHPNAMGWYRQAPGKERELVAAIRYSTGRTYYADSVKGRFTISRDNAKNTVYLQMNSLKPEDTAVYYCAREALQYPGLKYNYWGQGTQVTVSS | low polyreactivity
4 | QVQLVESGGGLVQAGGSLRLSCAASGSIFTHNAMGWYRQAHGKERELVAAISSGGSTNYADSVKGRFTISRDNAKNTVYLQMNSLKPEDTAVYYCAKSIDGWYWRRRRYDYWGQGTQVTVSS | low polyreactivity
5 | QVQLVESGGGLVQAGGSLRLSCAASGITFGTYAMGWYRQAPGKERELDAAIDTSGDDTYYADSVKGRFTISRDNAKNTVYLQMNSLKPEDTAVYYCAADFPSAEVDYWGQGTQVTVSS | low polyreactivity
6 | QVQLVESGGGLVQAGGSLRLSCAASGFTFYLNAMGLYRQAPGKERELVAGISWRGGRTYYADSVKGRFTISRDNAKNSVYLQMNSLKAEDTAVYYCAAVTYSFQKTDYYWGQGTQVTVSS | high polyreactivity
7 | QVQLVESGGGLVQAGVRLRLSCPASGTTFYYNAMGRYRQAPGKERELVAAITSGGRTKYADSVKGRFTISRDNAKNTVYLQKNRLKPEDTAVYYCNTYNRRSGTLPKAYDYWGQGTQVTVSS | high polyreactivity
8 | QVQLVESGGGLVQAGGSLRLSCAASGFIFGRYAMGWYRQSPGKERELVAVISKRGDNTYYADSVKGRFTISRDNAKNTVYLQMNSLKPEDTAVYYCNVKRYGGRSDYWGQGTQVTVSS | high polyreactivity
9 | QVQLVESGGGLVQAGGSLRLSWAASGITFYGNAMGWYRAAPGKEREFVAAISTRDGTTYADSVKGRFTISRDNAKNTVYLQRNSLKPEDTAVYYCAAAYYYDGQQGDFAYWGQGTQVTVSS | low polyreactivity
10 | QVQLVESGGGLVQAGGSLRLSCAASGFTFGFYAMGWYRQGPGKERELVAASTRSGGTTYYADSVKGRFTISRDNAKNTVYLQMNSLKPEDTAVYYCAADYTKYYRRYYYWGQGTQVTVSS | high polyreactivity
11 | QVQLVESGGGLVQAGGSLRLRCAASGSIFVVNAMGWYRPAPGKERELVAAISWSDTTTYYADSVKARFTISRDNAKNTVYLQMNSLKPEDTAVYYCAAGFVIKYDYWGQGTQVTVSS | low polyreactivity
12 | QVQLVESGGGLVQAGGSLRLSCAASGSTFVQNTMGWYRQAPGKERELVAAITRGGSTSYADSVKGRFTISRDNAKNTVYLQMNSLKPEDTAVYYCNAKSRSPTYRYRSWPYNYWGQGTQVTVSS | high polyreactivity
13 | QVQLVESGGGLVQAGGSLRLSCAASGRIFGWYAMGWYRQSPGKERELVAAITGSGSRTYYADSVKGRFTISRDNAKNTVYLQMNSLKPEDTAVYYCAVPTRRRRIYDYWGQGTQVTVSS | high polyreactivity
14 | QVQLVESGGGLVQAGGSLRLSCAASGIIFRYYAMGWYRQAPGKERELVAAISGRGGSTYYADSVKGRFTISRDNAKNTVYLQMNSLKPEDTAVYYCAIYVSWPLYYYWGQGTQVTVSS | low polyreactivity
15 | QVQHVESGGGLVQAGGSLRLSCAASGIIFGSNVMGWYRQAPGKERELVAAISYSGASTYYADSVKGRFTISRDNAKNTVYLQMNSLKPEDTAVYYCAADGHRNGYYYHEYDSWGQGTQVTVSS | low polyreactivity
16 | QVQLVESGGGLVQAGGSLRLSCAASGRIFKYNAMGWYRQAPGKERELVAAISGTGGSTYYADSVKGRFTISRDNAKNTVYLQMNSLKPEDTAVYYCAARYYIVSLGSGYWGQGTQVTVSS | high polyreactivity

Row | Sequence | polyreactivity (PSR sort gate)
17 | QVQLVESGGGLVQAGGSLRLSCAASGSTLDIYAMGWYRQAPGKERELVAAITSGGSTNYADSVKGRFTISRDNAKTTVYLQLNSLKPEDTAVYSCNARYFRGYDYWGQGTQVSVSS | high polyreactivity
18 | QVQLVESGGGLVQAGGSLRLSCAASGSIFTPYAMGWYRQAPGKERELVAAISRSGGSTYYADSVKGRFTISRDNAKNTVYLQMNSLKPEDTAVYYCAVVVYDIYGYESDYWGQGTQVTVSS | low polyreactivity
19 | QVQLVESGGGLVQAGGSLRLSCAASGFTFPVYTMGWYSQAPGKERELVAAISTAGAGTYYADSVKGRFTISRDNAKNTVYLQMNSLKPEDTAVYYCAAYKRGRPEMDYWGQGTQVTVSS | high polyreactivity
20 | QVQLVESGGGLVQAGGSLRLSCAASGRIIYRYAMGWYRQAPGKERELVATITWSTTSTYYADSVKGRFTISRDNAKNTVYLEMNSLKPEDTAVYYCASSIIPGFRRDPFGYWGQGTQVTVSS | low polyreactivity
21 | QVQLVESGGCLVQAGGSLRLSCCASARTFWYYTMGWYRQAPGKERELVASISRVTSTYYADSVKGRLTSSRDNAKNTVYLQMNSLKPEDTAVYYCAGLQIRRSYWRTFYWGQGTQVTVSS | low polyreactivity
22 | QVQLVESGGGLVQAGGSLRLSCAASGNIFYRYAMGWYRQAPGKERELVAAISGNSGNTYYADSVKGRFTISRDNAKNSVYLQMNSLKPEDTAVYYCAARPYYSYAGSGGYWGQGTQVTLSS | high polyreactivity
23 | QVQLVESRGGLVQAGGSLRLSCAASRRIFVRNAIGWYIQEPGKERELVAAISSSGGPTYYADSVKGRFTISRDNAKNTVYLQMNSLKPEDTAVYYCAASSSNKEYDYWGQGTQVTVSS | high polyreactivity
24 | QVQLVESGGGLVQAGGSLRLSCAASGRTFVWNAMGWYRQAPGTERELVAAITSGGSTNYADSVKGRFTISRDNAKNTVYLQMNSLIPEDTAVYYCGAVWQYSPRMDYWGQGTQVTVSS | low polyreactivity
25 | QVQLVESGGGLDQAGGSLRLSCAASGRIYYNYAMGWYRQSPVKERELVAAISGSGGSTYYADSVKWRLTISRDNAKNTVYLLMNSLKPEDTAVYYCSTSGPQYYSRNFDYWGQGTQVTVSS | low polyreactivity
26 | QVQLVESGGGLVQAGGSLRLSCAASGSIFYPYAMGWYRQAPGKERELLASITINDGSTYYADSVKGRFTISRDNAKNTVYLQMNSLKPEDTAVYYCNVEPVPGFGSEYEYWGQGTQVTVSS | low polyreactivity
27 | QVQLVESGGGLVQAGGSLRLSCAASGSIFQGYAMGWYRQAPGKERELVAVITSRVGRTYYADSVKGRFTISRDNAKNTVYLQMNSLKPEDTAVYYCAAKLYGGWYRDFAASGMDYWGQGTQVTVSS | high polyreactivity
28 | QVQLVESGGGLVQAGGSLRLSCAASGRIFYLNVMGWYRQAPGKERELVAAITRRDVTTYADSVKGRFTISRDNAKNTVYLQMNSLKPEDTAVYYCNAVYYNRIGFDYWGQVTQVTVSS | low polyreactivity
29 | QVQLVESGGGLVQAGGSLRLSCAASGRIFTWYAMGWYRQAPGKERELVAAINASGGGTYADSVKGRFTISRDNAKNTVYLQMNSLKPEDTAVYYCNADIRAFYLYYSEGFSWRLDYWGQGTQVTVSS | high polyreactivity
30 | QVQLVESGGGLVQAGGSLRLSCAASGGTFDVYTMGWYRQAPGKERELVAVISSSGGGTYYADSVKGRFTISRDNAKNTVYLQMNSLKPEDTAVYYCAARRKRQNTYYPYYYWGQGTQVTVSS | high polyreactivity
31 | QVQLVESGGGLVQAGGSLRLSCAASGRIISRYTMGWSRQAPGKEREWVAGISRSGDRTYYADSVKGRFTISRDNAKNTVYLQMNSLKPEDTAVYSCNAGYWRFIDSYDYWGQGTQVTVSS | high polyreactivity
32 | QVQLVESGGGLVQAGGSLRLSCAASGRTFGYYAMGWYRPAPGKEGELVAVITWSGDSTYYADSVKGRFTISRDNAKNTVYLQMNSLKPEDTAVYYCNADSGNAGTAYDDYDYWGQGTQVTVSS | low polyreactivity
